Here are results for 1 molecule from paper PMC8968458.

The target in the test is NF-κB protein p65 (endogenous) (human (endogenous in PC-3)), Q04206. Briefly: immuno-depletion. Particulars: remark: other sources report otherwise.
Chain of NF-κB protein p65 (endogenous) (human (endogenous in PC-3)), Q04206 (Q04206 whole entry): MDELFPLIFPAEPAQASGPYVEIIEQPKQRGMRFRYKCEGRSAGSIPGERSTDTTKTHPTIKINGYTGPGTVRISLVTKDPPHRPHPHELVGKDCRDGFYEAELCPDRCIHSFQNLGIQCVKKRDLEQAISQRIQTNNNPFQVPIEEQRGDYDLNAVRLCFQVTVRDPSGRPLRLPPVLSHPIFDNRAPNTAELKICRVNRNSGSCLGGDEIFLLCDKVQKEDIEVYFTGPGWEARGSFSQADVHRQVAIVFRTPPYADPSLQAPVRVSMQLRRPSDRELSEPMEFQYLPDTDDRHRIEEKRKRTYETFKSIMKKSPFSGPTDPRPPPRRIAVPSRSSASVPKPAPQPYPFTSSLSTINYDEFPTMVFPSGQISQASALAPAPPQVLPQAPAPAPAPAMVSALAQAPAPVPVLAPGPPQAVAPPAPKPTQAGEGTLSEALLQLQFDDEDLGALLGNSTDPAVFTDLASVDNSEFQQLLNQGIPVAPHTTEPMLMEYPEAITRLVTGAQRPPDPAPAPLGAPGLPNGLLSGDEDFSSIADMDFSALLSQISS

B1: IκBα (endogenous), P25963 1-317 (natural protein)
chain: MFQAAERPQEWAMEGPRDGLKKERLLDDRHDSGLDSMKDEEYEQMVKELQEIRLEPQEVPRGSEPWKQQLTEDGDSFLHLAIIHEEKALTMEVIRQVKGDLAFLNFQNNLQQTPLHLAVITNQPEIAEALLGAGCDPELRDFRGNTPLHLACEQGCLASVGVLTQSCTTPHLHSILKATNYNGHTCLHLASIHGYLGIVELLVSLGADVNAQEPCNGRTALHLAVDLQNPDLVSLLLKCGADVNRVTYQGYSPYQLTWGRPSTRIQQQLGQLTLENLQMLPESEDEESYDTESEFTEFTEDELPYDDCVFGGQRLTL
The molecule B1 came in with a percent of IκBα bound to p65 of 63%.
